In patent EP3583122A1 (dated 2019):

Key:
Experiment in all cases: cell-based or functional assay
[1] = target: T1, TAFV GP on VSV pseudotype particles (Tai Forest virus (TAFV), UniProt Q66810 33-676)
T1 sequence: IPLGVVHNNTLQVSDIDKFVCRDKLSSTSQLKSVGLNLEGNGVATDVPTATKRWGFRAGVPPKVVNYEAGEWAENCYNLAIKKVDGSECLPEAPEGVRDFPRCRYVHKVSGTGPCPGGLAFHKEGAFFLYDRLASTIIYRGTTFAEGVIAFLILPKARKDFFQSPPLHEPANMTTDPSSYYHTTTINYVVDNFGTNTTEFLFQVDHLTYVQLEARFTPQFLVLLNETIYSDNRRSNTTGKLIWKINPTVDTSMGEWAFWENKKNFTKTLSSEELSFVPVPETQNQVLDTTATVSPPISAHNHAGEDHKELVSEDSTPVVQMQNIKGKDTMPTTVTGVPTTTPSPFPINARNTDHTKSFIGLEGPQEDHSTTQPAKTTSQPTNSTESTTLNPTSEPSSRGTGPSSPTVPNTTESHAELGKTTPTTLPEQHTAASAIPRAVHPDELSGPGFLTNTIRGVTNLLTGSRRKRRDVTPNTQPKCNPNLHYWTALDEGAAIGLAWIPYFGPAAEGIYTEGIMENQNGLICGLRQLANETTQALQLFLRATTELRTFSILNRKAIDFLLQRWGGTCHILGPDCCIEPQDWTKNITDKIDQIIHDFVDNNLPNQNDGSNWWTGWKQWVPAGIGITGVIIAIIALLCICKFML

[2] = target: T2, RESTV GP on rVSV particles (Reston virus (RESTV), UniProt Q66799 34-677)
T2 sequence: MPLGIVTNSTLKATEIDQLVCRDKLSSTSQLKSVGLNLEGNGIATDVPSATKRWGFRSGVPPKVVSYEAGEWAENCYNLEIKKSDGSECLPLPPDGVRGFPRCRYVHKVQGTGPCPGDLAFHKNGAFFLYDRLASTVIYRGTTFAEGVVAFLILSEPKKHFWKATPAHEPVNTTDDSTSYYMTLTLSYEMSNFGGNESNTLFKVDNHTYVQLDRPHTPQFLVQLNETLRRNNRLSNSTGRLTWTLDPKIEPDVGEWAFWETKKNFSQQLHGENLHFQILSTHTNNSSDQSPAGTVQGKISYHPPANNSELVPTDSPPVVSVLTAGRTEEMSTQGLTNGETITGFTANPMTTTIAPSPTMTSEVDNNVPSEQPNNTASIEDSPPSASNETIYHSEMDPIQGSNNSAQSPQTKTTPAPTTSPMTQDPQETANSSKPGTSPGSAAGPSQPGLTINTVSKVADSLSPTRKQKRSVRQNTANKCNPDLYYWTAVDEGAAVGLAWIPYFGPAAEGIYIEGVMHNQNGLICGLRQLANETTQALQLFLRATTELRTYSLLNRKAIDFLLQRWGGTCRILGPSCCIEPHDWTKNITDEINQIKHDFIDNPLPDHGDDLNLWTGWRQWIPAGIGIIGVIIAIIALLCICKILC

[3] = target: T3, EBOV GP on rVSV particles (Ebola virus (EBOV), UniProt Q05320 33-676)
T3 sequence: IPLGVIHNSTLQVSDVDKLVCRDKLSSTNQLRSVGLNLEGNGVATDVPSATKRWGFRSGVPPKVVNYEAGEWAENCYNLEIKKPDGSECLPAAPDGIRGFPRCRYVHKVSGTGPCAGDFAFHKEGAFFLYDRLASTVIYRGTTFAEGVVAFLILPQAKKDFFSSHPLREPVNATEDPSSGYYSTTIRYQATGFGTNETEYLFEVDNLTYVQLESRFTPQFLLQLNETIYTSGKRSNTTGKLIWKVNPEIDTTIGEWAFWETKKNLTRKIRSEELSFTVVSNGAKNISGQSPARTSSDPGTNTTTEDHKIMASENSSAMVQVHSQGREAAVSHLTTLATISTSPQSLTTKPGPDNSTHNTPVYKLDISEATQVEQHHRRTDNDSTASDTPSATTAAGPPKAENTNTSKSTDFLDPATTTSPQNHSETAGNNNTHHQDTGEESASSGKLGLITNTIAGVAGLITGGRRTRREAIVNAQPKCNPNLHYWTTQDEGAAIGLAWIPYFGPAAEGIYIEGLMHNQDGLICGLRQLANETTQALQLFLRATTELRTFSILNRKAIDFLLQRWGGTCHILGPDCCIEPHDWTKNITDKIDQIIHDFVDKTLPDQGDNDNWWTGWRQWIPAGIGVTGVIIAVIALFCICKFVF

[4] = target: T4, SUDV GP on rVSV particles (Sudan virus (SUDV), UniProt Q66814 33-676)
T4 sequence: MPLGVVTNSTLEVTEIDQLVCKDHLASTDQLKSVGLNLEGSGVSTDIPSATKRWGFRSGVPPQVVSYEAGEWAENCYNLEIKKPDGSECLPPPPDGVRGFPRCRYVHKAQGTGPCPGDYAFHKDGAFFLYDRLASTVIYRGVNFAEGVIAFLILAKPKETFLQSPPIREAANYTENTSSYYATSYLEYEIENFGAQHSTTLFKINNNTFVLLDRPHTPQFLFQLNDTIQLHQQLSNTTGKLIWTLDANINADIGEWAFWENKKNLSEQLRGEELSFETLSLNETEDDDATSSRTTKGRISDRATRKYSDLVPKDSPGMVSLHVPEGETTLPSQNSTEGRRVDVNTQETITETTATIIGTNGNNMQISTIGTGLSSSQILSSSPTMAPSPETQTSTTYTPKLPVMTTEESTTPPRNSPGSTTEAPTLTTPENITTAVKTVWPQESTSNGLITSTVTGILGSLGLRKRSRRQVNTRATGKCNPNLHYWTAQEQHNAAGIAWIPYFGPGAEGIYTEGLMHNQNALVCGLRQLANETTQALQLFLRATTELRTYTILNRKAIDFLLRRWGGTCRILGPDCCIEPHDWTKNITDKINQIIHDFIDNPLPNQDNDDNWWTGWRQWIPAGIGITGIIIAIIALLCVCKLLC

[5] = target: BDBV GP on rVSV particles (Bundibugyo virus (BDBV))

B1: mAb PE-87 (antibody, V domains shown)
VH: QVQLVQSGVTLVQPGGSLRVSCAASGFTFSSYAMSWVRQAPGKGLEWVSAISGLGGSTYYADSVKGRFTISRDNSKNTLYLQMNSLRAEDTAVYYCAKDHRVWAAGYHFDYWGQGALVTVSS
VL: DIVLTQSPSTLSASVGDRVTITCRASQSISSWLAWYQQKPGEAPKLLISDASSLESGVPSRFSGSGSGTEFTLTISSLQPDDFATYYCQQYYSSPTFGGGTKVEIK
[1]
  IC50, half-maximal neutralization of viral infectivity (rVSV-GP): 0.9 nM
[2]
  IC50, half-maximal neutralization of viral infectivity (rVSV-GP): 0.1 nM
[3]
  IC50, half-maximal neutralization of viral infectivity (rVSV-GP): 1 nM
[4]
  IC50, half-maximal neutralization of viral infectivity (rVSV-GP): 0.8 nM
[5]
  IC50, half-maximal neutralization of viral infectivity (rVSV-GP): 0.4 nM
